In patent US12060408B2, “Screening assays, modulators and modulation of activation of Receptor for Advanced Glycation End-products (RAGE)” (Monash University, priority 2017, dated 2024):
Ends that are not written are not given here.

Columns and labels:
Assay type in all cases: cell-based
CXCR2 = molecular target: T1, CXCR2 (Homo sapiens, UniProt P25025); assay: Receptor-HIT BRET, β-arr2/Venus with RAGE/Rluc8 and CXCR2; conditions: in the presence of CXCR2
T1 construct: expressed in transfected cells; host or cells: HEK293FT, transient
From the text: (§1) Bioluminescence Resonance Energy Transfer (BRET)
(§2) BRET is an established technology for studying protein-protein proximity in live cells, particularly involving GPCRs (Pfleger and Eidne, 2006). One protein of interest was linked to a bioluminescent donor enzyme, Rluc8, a variant of Renilla luciferase, and a second linked to an acceptor fluorophore, Venus, a variant of green fluorescent protein. If in close proximity (<10 nm), energy resulting from the rapid oxidation of a cell-permeable coelenterazine substrate by the donor can transfer to the acceptor, which in turn fluoresces at a longer characteristic wavelength.
(§3) Plasmids were transiently co-expressed in human embryonic kidney (HEK) 293FT cells and BRET measurements taken at 37° C. using a POLARstar Omega or LUMIstar plate reader (BMG Labtech, Mornington, Victoria, Australia) with 460-490 nm (‘donor emission’) and 520-550 nm (‘acceptor emission’) filters, or a VICTOR Light plate reader (Perkin Elmer, Glen Waverley, Victoria, Australia) with 400-475 nm (‘donor emission’) and 520-540 nm (‘acceptor emission’) filters, or a CLARIOstar plate reader (BMG Labtech, Mornington, Victoria, Australia) with 420-480 nm (‘donor emission’) and 520-620 nm (‘acceptor emission’) filters. […]
(§4) For BRET kinetic assays, the final pre-treatment reading is presented at the zero time point (time of ligand/vehicle addition). […]

CXCR1 = molecular target: T2, CXCR1 (Homo sapiens, UniProt P25024); assay: Receptor-HIT BRET, β-arr2/Venus with RAGE/Rluc8 and CXCR1; conditions: in the presence of CXCR1
T2 construct: expressed in transfected cells; host or cells: HEK293FT, transient
From the text: as §1, §2, §3, §4

CXCR3 = molecular target: T3, CXCR3 (Homo sapiens, UniProt P49682); assay: Receptor-HIT BRET, β-arr2/Venus with RAGE/Rluc8 and CXCR3; conditions: in the presence of CXCR3
T3 construct: expressed in transfected cells; host or cells: HEK293FT, transient
From the text: as §1, §2, §3, §4

CXCR4 = molecular target: T4, CXCR4 (Homo sapiens, UniProt P61073); assay: Receptor-HIT BRET, β-arr2/Venus with RAGE/Rluc8 and CXCR4; conditions: in the presence of CXCR4
T4 construct: expressed in transfected cells; host or cells: HEK293FT, transient
From the text: as §1, §2, §3, §4

AT1 = molecular target: T5, AT1 (Homo sapiens, UniProt P30556); assay: BRET between mCherry/RAGE338-361 and luciferase-tagged AT1; design: expressed in transfected cells; host or cells: HEK293FT, transient
T5 sequence (P30556 1-359): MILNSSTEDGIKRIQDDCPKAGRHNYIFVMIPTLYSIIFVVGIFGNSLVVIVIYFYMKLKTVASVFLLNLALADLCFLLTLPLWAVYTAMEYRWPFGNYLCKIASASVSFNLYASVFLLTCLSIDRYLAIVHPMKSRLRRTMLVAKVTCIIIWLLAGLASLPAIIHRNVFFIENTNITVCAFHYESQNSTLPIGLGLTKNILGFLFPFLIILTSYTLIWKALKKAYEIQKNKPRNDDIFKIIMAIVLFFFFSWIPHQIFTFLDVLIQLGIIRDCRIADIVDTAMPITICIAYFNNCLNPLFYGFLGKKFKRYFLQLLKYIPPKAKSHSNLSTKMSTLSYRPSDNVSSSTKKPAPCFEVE
Protocol: FIG. 21A. BRET between mCherry/RAGE338-361 and Nluc/AT1 is increased with Ang II. Data are presented as mean±SEM; n=3-5.
FIG. 21D. Lack of Ang II-induced BRET signal between AT1/Rluc8 and mCherry/RAGE338-361 where cells were transfected with 50 ng AT1/Rluc8 cDNA, 300 ng RAGE/Venus cDNA and 0, 50, 100, 200, 300 or 400 ng of mCherry/RAGE338-361 CDNA or pcDNA3 control plasmid as indicated. Data are presented as mean±SEM; n=3-4. Filters: mCherry 650 nm/Rluc8 450 nm.
as §1
BRET is an established technology for studying protein-protein proximity in live cells, particularly involving GPCRs (Pfleger and Eidne, 2006). […]
as §3

[1] = test system: Human microvascular endothelial cells (HMEC); assay: Ang II-induced pro-inflammatory signalling (ICAM-1, MCP-1 RT-PCR) in HMEC; conditions: overexpression of construct
Protocol: Primary aortic endothelial cells (PMAEC) were isolated from the aortae of (wild-type) C57bl6 mice and AGER KO mice and cultured in Dulbecco's modified Eagle's medium (DMEM)/F12 endothelial cell growth supplement (ECGS) supplemented media. Chinese Hamster Ovary (CHO) cells were cultured using F12 media (10% FCS with 2 mM glutamine). Human microvascular endothelial cells (HMEC) were cultured in MCDB 131 medium (10% FCS with 10 mM glutamine, EGF and hydrocortisone).
Cellular Expression of Pro-Inflammatory Markers and Mediators by Quantitative Real-Time PCR
After 2 hours of exposure to Ang II (1 μM) or the RAGE ligand, S100A8/A9 (5 ng/ml) cells were placed in Trizol, mRNA extracted and cDNA synthesized. Changes in the gene expression of the NFκB subunit, p65 (RelA) or NFκB-activated target genes (e.g ICAM-1, VCAM-1) were estimated by quantitative real-time RT-PCR, performed using the TaqMan system based on real-time detection of accumulated fluorescence (ABI Prism 7700, Perkin-Elmer Inc, PE Biosystems, Foster City, CA, USA). Gene expression was normalized to 18S mRNA and reported as fold change compared to the level of expression in untreated control mice/cells, which were given an arbitrary value of 1.

CXCR6 = molecular target: T6, CXCR6 (Homo sapiens, UniProt O00574); assay: Receptor-HIT BRET, β-arr2/Venus with RAGE/Rluc8 and CXCR6; conditions: in the presence of CXCR6
T6 construct: expressed in transfected cells; host or cells: HEK293FT, transient
From the text: as §1, §2, §3, §4

CCR10 = molecular target: T7, CCR10 (Homo sapiens, UniProt P46092); assay: Receptor-HIT BRET, β-arr2/Venus with RAGE/Rluc8 and CCR10; conditions: in the presence of CCR10
T7 construct: expressed in transfected cells; host or cells: HEK293FT, transient
From the text: as §1, §2, §3, §4

T1 sequence (P25025 whole entry): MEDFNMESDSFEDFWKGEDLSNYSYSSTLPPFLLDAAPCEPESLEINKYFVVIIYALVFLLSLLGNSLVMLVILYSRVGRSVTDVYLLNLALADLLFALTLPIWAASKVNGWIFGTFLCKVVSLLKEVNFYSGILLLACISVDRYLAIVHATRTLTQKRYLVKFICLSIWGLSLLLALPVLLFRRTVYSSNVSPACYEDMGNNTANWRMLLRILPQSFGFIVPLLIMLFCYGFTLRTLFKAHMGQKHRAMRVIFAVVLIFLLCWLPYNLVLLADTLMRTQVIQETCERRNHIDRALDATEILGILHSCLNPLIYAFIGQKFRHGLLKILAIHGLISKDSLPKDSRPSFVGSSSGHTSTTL
T1 sequence (P32121 whole entry partner): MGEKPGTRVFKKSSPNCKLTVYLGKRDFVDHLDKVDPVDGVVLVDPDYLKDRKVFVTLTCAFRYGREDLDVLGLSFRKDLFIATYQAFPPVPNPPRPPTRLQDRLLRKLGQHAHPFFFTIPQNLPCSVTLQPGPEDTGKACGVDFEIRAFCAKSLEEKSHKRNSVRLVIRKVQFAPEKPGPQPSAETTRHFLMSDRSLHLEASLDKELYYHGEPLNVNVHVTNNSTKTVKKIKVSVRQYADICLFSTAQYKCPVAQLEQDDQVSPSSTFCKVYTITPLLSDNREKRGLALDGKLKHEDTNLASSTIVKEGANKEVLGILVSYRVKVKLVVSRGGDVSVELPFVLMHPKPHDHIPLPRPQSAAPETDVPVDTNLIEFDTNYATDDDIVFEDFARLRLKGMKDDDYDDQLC
T3 sequence (P49682 whole entry, species assumed): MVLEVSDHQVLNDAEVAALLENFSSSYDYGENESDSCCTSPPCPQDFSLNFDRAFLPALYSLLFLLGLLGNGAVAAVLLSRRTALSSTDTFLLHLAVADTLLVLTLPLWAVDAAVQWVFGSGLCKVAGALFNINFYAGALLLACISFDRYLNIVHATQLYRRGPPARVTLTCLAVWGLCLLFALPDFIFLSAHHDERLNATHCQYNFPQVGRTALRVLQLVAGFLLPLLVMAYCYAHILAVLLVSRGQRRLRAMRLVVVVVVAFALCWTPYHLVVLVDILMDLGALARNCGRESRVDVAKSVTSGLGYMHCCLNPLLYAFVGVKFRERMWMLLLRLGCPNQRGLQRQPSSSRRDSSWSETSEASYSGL
T3 sequence (P32121 whole entry partner, species assumed): as the sequence (P32121 whole entry partner) above
T6 sequence (O00574 whole entry): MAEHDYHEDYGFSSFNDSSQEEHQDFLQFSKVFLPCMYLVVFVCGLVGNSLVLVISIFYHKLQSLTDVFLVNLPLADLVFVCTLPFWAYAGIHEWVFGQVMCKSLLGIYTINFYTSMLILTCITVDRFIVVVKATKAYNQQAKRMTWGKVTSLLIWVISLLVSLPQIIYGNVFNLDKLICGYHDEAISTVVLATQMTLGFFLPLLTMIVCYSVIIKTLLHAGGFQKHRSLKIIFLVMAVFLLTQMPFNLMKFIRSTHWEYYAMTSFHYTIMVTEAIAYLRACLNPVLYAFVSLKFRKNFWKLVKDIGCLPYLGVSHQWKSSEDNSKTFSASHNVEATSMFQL
T6 sequence (P32121 whole entry partner): as the sequence (P32121 whole entry partner) above
T4 sequence (P61073 whole entry): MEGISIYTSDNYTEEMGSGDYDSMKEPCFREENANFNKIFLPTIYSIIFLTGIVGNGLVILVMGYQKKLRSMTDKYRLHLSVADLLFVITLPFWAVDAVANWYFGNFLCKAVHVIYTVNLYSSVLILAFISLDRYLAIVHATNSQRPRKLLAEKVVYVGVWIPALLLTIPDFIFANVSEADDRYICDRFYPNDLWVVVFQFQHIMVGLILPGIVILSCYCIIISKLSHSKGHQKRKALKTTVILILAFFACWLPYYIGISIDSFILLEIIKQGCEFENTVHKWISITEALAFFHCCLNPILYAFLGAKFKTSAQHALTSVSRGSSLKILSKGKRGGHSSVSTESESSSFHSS
T4 sequence (P32121 whole entry partner): as the sequence (P32121 whole entry partner) above
T7 sequence (P46092 whole entry): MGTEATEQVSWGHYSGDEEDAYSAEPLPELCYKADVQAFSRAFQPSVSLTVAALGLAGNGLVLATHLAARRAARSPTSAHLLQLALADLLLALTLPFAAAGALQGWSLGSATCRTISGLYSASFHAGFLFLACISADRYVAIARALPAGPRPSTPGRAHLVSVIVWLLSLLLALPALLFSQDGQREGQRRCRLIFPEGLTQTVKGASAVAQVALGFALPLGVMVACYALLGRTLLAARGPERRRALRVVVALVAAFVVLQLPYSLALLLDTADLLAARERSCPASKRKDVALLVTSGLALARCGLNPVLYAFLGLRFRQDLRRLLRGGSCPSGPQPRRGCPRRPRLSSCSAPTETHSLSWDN
T7 sequence (P32121 whole entry partner): as the sequence (P32121 whole entry partner) above
T2 sequence (P25024 whole entry, species assumed): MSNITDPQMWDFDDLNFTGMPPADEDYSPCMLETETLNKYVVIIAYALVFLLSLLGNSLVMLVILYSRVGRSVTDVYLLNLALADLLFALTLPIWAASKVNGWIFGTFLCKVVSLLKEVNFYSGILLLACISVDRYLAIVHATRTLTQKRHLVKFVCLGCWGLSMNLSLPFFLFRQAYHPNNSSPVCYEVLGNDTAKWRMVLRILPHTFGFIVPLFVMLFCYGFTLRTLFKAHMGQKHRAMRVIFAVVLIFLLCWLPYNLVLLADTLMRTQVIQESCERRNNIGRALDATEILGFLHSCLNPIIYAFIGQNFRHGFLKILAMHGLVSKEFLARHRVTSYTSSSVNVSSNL
T2 sequence (P32121 whole entry partner, species assumed): as the sequence (P32121 whole entry partner) above

Q: What does the source list for “CXCL8: chemokine ligand used to activate CXCR1 and CXCR2”?
A: recruitment of β-arr2/Venus proximal to RAGE/Rluc8 (CXCR2): recruitment; recruitment of β-arr2/Venus proximal to RAGE/Rluc8 (CXCR1): Weak

Q: With “CXCL11: chemokine ligand used to activate CXCR3” as the molecule, how does the “recruitment of β-arr2/Venus proximal to RAGE/Rluc8” value (shortened to “recruitment … to RAGE/Rluc8”) (CXCR3) read?
A: Lack of

Q: With “CXCL 12: chemokine ligand used to activate CXCR4” as the molecule, how does the “β-arr2/Venus proximity to RAGE/Rluc8” value (CXCR4) read?
A: reduction

Q: How did the “Ang II-induced BRET signal with AT1/Rluc8” value (AT1; cells also transfected with RAGE/Venus cDNA, filters mCherry 650 nm/Rluc8 450 nm) turn out when “mCherry/RAGE338-361: mCherry fusion of RAGE338-361 (LGTLALALGILGGLGTAALLIGVI; also: mCherry fusion)” was run?
A: Lack of

Q: And the “BRET with Nluc/AT1” value (AT1; with Ang II)?
A: increased

Q: What about the “inhibition of Ang II-induced ICAM-1 expression” value [1] of the same molecule?
A: inhibited

B1: CXCL16: chemokine ligand used to activate CXCR6 (protein)
chain: NEGSVTGSCYCGKRISSDSPPSVQFMNRLRKHLRAYHRCLYYTRFQLLSWSVCGGNKDPWVQELMSCLDLKECGHAYSGIVAHQKHLLP
Q: B1 was tested. Which “recruitment … to RAGE/Rluc8” value (CXCR6) did it give?
A: recruitment

B2: CCL27: chemokine ligand used to activate CCR10 (protein)
chain: FLLPPSTACCTQLYRKPLSDKLLRKVIQVELQEADGDCHLQAFVLHLAQRSICIHPQNPSLSQWFEHQERKLHGTLPKLNFGMLRKMG
Q: How did the “recruitment … to RAGE/Rluc8” value (CCR10) turn out when B2 was run?
A: Lack of
